Consider three molecules from article PMC9174195, “Structural insights into human brain–gut peptide cholecystokinin receptors” (Cell Discovery, 2022).

Some targets named below: CCK2R K324N (human) (UniProt P32239); CCK2R I156A (human) (UniProt P32239); CCK2R L335A (human) (UniProt P32239); CCK2R Q166A (human) (UniProt P32239); CCK2R R152A (human) (UniProt P32239).
Assay [1] deals with T1, human CCK2R with 15-residue depletion at the C-terminus, N-terminal Flag-tag, C-terminal LgBiT and double MBP … (human, UniProt P32239 1-432).
T1 construct: human cholecystokinin receptor CCK2R, wild type, C-terminal 15 residues removed; also called CCK2 receptor; gastrin receptor; not shown: LgBiT, C-terminal, kept
T1 sequence (looked up): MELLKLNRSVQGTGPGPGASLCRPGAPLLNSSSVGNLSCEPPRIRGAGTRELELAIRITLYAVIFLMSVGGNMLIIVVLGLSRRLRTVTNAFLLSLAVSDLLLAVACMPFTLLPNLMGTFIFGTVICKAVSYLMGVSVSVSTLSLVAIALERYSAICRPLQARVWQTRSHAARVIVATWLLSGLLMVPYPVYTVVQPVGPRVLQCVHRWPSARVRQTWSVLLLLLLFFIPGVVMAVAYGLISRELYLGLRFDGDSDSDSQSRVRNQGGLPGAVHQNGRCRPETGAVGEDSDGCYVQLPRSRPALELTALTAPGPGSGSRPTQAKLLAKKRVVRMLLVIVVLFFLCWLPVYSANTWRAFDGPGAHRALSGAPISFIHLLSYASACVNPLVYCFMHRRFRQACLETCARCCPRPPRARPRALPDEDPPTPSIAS
Kind of assay: cryo-EM structure; gastrin-17–CCK2R–Gq–scFv16 complex; CCK2R, GqiN, Gβγ-peptide and Ric-8A co-expressed in Sf9, ligand and apyrase added, complex purified on MBP resin and Superdex 200 (20 mM HEPES pH 7.5, 100 mM NaCl); 13 mg/mL on the grid; 3.1 Å. The following applies: both partners purified.

Square brackets hold non-standard residues; d marks the D form. Ends that are not written are not given here. sY = N[C@@H](Cc1ccc(OS(=O)(=O)O)cc1)C(=O)O

In the assay with CCK2R K324N (human), “dominant-negative human Gαs (DNGαs) (from UniProt P63092 1-394) (natural protein)” displayed a coupling potency with Gs against wild-type CCK2R, CCK-8-induced cAMP accumulation (Fig. 7d) above 3 fold.

On to “Gαq with the 29 N-terminal amino acids replaced by the corresponding sequence of Gαi1 (GqiN) (from UniProt P50148 30-359)”, for which the CCK-8 efficacy, CCK-8-induced Gαq–Gγ dissociation (NanoBiT) assay (% reduction of efficacy) with CCK2R I156A (human), with CCK2R L335A (human) and in the assay with CCK2R Q166A (human) was 50 each time. This molecule had an efficacy of G protein signaling against the wild type, CCK-8-induced Gαq–Gγ dissociation (NanoBiT) assay (% of the wild-type) in the assay with CCK2R R152A (human) of 30. In the assay with CCK2R R152A (human), this molecule had a potency of G protein signaling against the wild type, CCK-8-induced Gαq–Gγ dissociation (NanoBiT) assay above 3 fold.

B1: sulfated gastrin-17 (peptide, UniProt P01350 76-92, looked up)
peptide: QGPWLEEEEEA[sY]GWMDF
modifications: not fully specified (residue 1, C-terminus)
notes: gastrin-17, cut product of the gastrin precursor
As for B1, the binding result in assay [1] is on record as “binds”.
